Measurements from FireProtDB (doi:10.1016/j.bpc.2008.08.008).
“And” between values parts separate entries of the source, which are not always exact repeats. Identical values can stand only once.

Details: Capra hircus, pH 6, Cacodylate 0.03 M, Potassium chloride 0.1 M, reversible: Yes; for denaturant midpoint (higher = more stable) / unfolding free energy: 25 °C, GdnHCl

wild type, Q3LUG9, sequence (Q3LUG9 entry or part of it): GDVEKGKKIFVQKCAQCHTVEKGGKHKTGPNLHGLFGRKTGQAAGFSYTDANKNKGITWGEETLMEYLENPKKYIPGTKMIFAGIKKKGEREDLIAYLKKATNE

For wild type, Q3LUG9, the “denaturant midpoint (higher = more stable)” value (Absorbance) was 2.7 M and 2.6 M, the unfolding free energy (Absorbance) was 9.49 kcal/mol and 9.39 kcal/mol and the “denaturant midpoint (higher = more stable)” value (CD) was 2.5 M and 2.6 M. For the same substance, the unfolding free energy (CD) was 9.3 kcal/mol and 9.58 kcal/mol and the “heat capacity change of unfolding” value (Thermal, CD) was 1.29 kcal/mol/K.
